Results on 8 molecules are retold here after paper PMC3375335, “The Interdomain Linker of AAV-2 Rep68 Is an Integral Part of Its Oligomerization Domain: Role of a Conserved SF3 Helicase Residue in Oligomerization” (PLoS Pathogens, 2012).

Like-named read-outs stand apart in the source and are kept apart here.

Assay [1] addresses Rep68ΔN209 (adeno-associated virus 2 (AAV-2)) (UniProt P03132). Nature of the assay: AUC.
Another assay concerns the target T1, Rep68ΔN200 (Adeno-associated virus 2 Srivastava/1982, UniProt P03132).
T1 construct: gene Rep68; Rep68 without the OBD: full interdomain linker plus helicase domain, to residue 536; start 201 read from the name; pET-15b, E. coli BL21(DE3); also printed Rep68Δ200, RepΔN200
Type of assay: binding. Particulars: 36 µM protein, 200 mM NaCl, pH 8.0, 20 °C.

Another assay concerns the target T2, Rep68ΔN209 (Adeno-associated virus 2 Srivastava/1982, UniProt P03132).
T2 construct: gene Rep68; residues 210-536, part of linker plus helicase domain; pET-15b, E. coli BL21(DE3)
Type of assay: binding. Particulars: 36 µM protein, 200 mM NaCl, pH 8.0, 20 °C.

Assay [2] has as its target Rep68ΔN214 (adeno-associated virus 2 (AAV-2)) (UniProt P03132). In words: AUC.
Assay [3] concerns the target OBD-linker (residues 1-224) of AAV-2 Rep68 (adeno-associated virus 2 (AAV-2)) (UniProt P03132). In words: AUC; sedimentation velocity without nucleotide, 40,000 rpm, 20°C, 25 mM Tris-HCl pH 8.0, 200 mM NaCl, 2 mM TCEP; c(s) by sedfit; constants from a global fit (sedphat) to a monomer-dimer model: dimer to monomers.
Assay [4] has as its target Rep68Y224A (adeno-associated virus 2 (AAV-2)) (UniProt P03132). In words: AUC.
Assay [5] addresses Rep68ΔN200 (adeno-associated virus 2 (AAV-2)) (UniProt P03132). Nature of the assay: AUC.
For assay [6] the target is unchanged. In words: cross-linking; DMP (dimethyl pimelimidate), 30 fold molar excess, 60 min at room temperature, protein 2 mg/ml, 25 mM HEPES, 200 mM NaCl, pH 8.0; 8% SDS-PAGE.
For assay [7] the target is unchanged. In words: AUC; sedimentation velocity without nucleotide, 40,000 rpm, 20°C, 25 mM Tris-HCl pH 8.0, 200 mM NaCl, 2 mM TCEP; c(s) by sedfit; constants from a global fit (sedphat) to a monomer-dimer model: dimer to monomers.
The target in assay [8] is T3, AAV-2 Rep40 (adeno-associated virus 2 (AAV-2), UniProt P03132 225-536). The assay is described as above. Particulars: both partners purified.
Assay [9] concerns the target T3, AAV-2 Rep40. Described as above. Particulars: both partners purified. This is another data set of the same source.

For the molecule “Rep68ΔN209 (from UniProt P03132 210-536) (domain or fragment)”, in [1], the stoichiometry N amounted to 2.

`Nc1ncnc2c1ncn2[C@@H]1O[C@H](COP(=O)(O)OP(=O)(O)OP(=O)(O)O)[C@@H](O)[C@H]1O` [ATP]: the “sedimentation velocity ultracentrifugation, nucleotide-induced oligomerization” value on Rep68ΔN200 (5 mM ATP) is given as “ATP on the other hand, seems to generate more stable species at ∼7S”; on Rep68ΔN209 (5 mM ATP), “ATP on the other hand, seems to generate more stable species at ∼7S”.

In turn, “Rep68ΔN214 (from UniProt P03132 215-536) (domain or fragment)” yielded a stoichiometry N in [2] of 2.

With “OBD-linker (residues 1-224) of AAV-2 Rep68 (from UniProt P03132 1-224) (domain or fragment)”, the stoichiometry N in [3] came to 2.

With “Rep68Y224A (from UniProt P03132 1-536) (natural protein)”, the stoichiometry N in assay [4] was determined as 2.

As for `Nc1ncnc2c1ncn2[C@@H]1O[C@H](COP(=O)(O)OP(=O)(O)O)[C@@H](O)[C@H]1O` [ADP], the “sedimentation velocity ultracentrifugation, nucleotide-induced oligomerization” value on Rep68ΔN200 (5 mM ADP) was “ADP produces two main populations sedimenting at ∼3S and ∼7S”; on Rep68ΔN209 (5 mM ADP), “ADP produces two main populations sedimenting at ∼3S and ∼7S”.

On to “Rep68ΔN200 (from UniProt P03132 201-536) (domain or fragment)”, for which the stoichiometry N in assay [5], in [6] and in assay [7] was 2 in each case. This molecule also registered a Kd in assay [7] of 79 µM. Further, the logKa in assay [7] was determined as 4.1.

B1: AAV-2 Rep40 (natural protein)
chain: MELVGWLVDKGITSEKQWIQEDQASYISFNAASNSRSQIKAALDNAGKIMSLTKTAPDYLVGQQPVEDISSNRIYKILELNGYDPQYAASVFLGWATKKFGKRNTIWLFGPATTGKTNIAEAIAHTVPFYGCVNWTNENFPFNDCVDKMVIWWEEGKMTAKVVESAKAILGGSKVRVDQKCKSSAQIDPTPVIVTSNTNMCAVIDGNSTTFEHQQPLQDRMFKFELTRRLDHDFGKVTKQEVKDFFRWAKDHVVEVEHEFYVKKGGAKKRPAPSDADISEPKRVRESVAQPSTSDAEASINYADRLARGHSL
modifications: Start at 225 follows from the text; the C-terminus of the assayed Rep40 is not given, so full-length Rep40 (to 536) is taken; 225-490 is given only for the crystal structure 1S9H. ATP or ADP added …
As for B1, the “stoichiometry N” value in the assay with AAV-2 Rep40 [8] worked out at 2. For the same molecule, the Kd in the assay with AAV-2 Rep40 [9] stood at 730 µM.

One may read the stoichiometry N as the number of molecules, sites or subunits per partner or assembly. The term Kd denotes the constant that tells how readily two partners part at equilibrium. Read a high Kd as weaker binding.
